According to IntAct's records for PubMed 17292842:

B1: Rab guanine nucleotide exchange factor SEC2 (Saccharomyces cerevisiae), P17065 (parent)
chain: MDASEEAKRVSIQVTSLSTQLIESVDKQSHLEEQLNKSLKTIASQKAAIENYNQLKEDYNTLKRELSDRDDEVKRLREDIAKENELRTKAEEEADKLNKEVEDLTASLFDEANNMVADARKEKYAIEILNKRLTEQLREKDTLLDTLTLQLKNLKKVMHSLDNESTVTNNSNRYSTILSDSATSSSTSLNKVPTSYSLASQDIYSGIVYSPSISSIRYDISLYNEFLKFVAALPRCENIKATSTESKLIRRLVNDEIQPILKIDNASGIGWLVKKTLLSLIIDGLVVVEPLSGVNATYQIGYNSSSPAKQATSNMPKMFKFPLDSPPVAVHAACSFCGESRDDIIEHARMYILKTLHKTDDGKEQVTNTYPLCHWCLLKLRQTCEIFAFLRSLKVGAWHLEKLTTQNITKEDLEKFSEVTKHTKRDGRVSSQDKKTKRLSFMAGLGINSSTKNKPKMEIFSSETNAKPGQPTTNIQRAWLQLCKLRCILHWTHIGIWAVDDSISSKIGPLVEDDSDEDQNDAISVRLQDKALWKQDAKRPFSSSSAEESQKSDAFDFESGDMENEITGESSSDESSSDGSSTDNSTADSSSEDESSLADSTTSSADSSSPESIDNGEGDDTVTKDDKSSIKSANNNEENSDCGDKKGRSIIKKKAPQRKIQKKKLLQDLDDLEEQFREESAIDQTEFENAESNVKQNISSKRASSGDENSKKDNNEKTLKTNLTIGDKTQEQIGENSPSSGLHASSSNDDNFDDAQEQQ
partner: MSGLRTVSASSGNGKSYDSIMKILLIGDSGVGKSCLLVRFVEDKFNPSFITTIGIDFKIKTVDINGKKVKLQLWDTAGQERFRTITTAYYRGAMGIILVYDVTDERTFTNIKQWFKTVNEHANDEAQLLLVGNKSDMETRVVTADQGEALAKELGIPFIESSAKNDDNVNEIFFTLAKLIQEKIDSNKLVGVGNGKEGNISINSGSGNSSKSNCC

Variants of: B1
Conditions: with sec4_yeast SEC4, P07560

Variant | effect of a mutation on the interaction
E100A | disrupting interaction
L104A | disrupting interaction
F109A | disrupting interaction
